{"source": "paper PMC5112516", "assay_in_all_cases": "tryptophan fluorescence quenching", "settings_in_all_cases": "Fluorescence and EMSA: PBS (130 mM NaCl, 2.7 mM KCl, 10 mM Na2HPO4, 2 mM KH2PO4, pH 7.4), 25 C; ELISA: 10 mM KH2PO4, 50 mM KCl, pH 7, 0.1% Tween 20", "key": {"[1]": {"target": "T1, Sac7d (Sulfolobus acidocaldarius) (UniProt P13123)", "T1 sequence": "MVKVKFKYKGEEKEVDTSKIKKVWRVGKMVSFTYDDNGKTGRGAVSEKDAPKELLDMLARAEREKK"}, "[2]": {"target": "T2, Ssh7b (Sulfolobus shibatae) (UniProt O59632)", "T2 sequence": "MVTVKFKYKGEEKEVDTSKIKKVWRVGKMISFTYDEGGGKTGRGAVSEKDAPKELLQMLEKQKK"}, "Mse7": {"system": "Mse7"}, "[3]": {"target": "T3, Aho7c (Acidianus hospitalis) (UniProt F4B8X5)", "T3 sequence": "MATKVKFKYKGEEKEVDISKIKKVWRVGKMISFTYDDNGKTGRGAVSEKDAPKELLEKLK"}, "[4]": {"target": "T4, Aho7a (Acidianus hospitalis) (UniProt F4B991)", "T4 sequence": "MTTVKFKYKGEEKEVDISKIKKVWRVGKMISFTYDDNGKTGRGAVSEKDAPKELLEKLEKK"}, "[5]": {"target": "T5, Aho7b (Acidianus hospitalis) (UniProt F4B9I5)", "T5 sequence": "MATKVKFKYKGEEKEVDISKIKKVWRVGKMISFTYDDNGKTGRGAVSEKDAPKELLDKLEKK"}, "[6]": {"target": "T6, Sac7e (Sulfolobus acidocaldarius) (UniProt P13125)", "T6 sequence": "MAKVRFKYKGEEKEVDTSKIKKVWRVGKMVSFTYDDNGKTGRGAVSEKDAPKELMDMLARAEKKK"}, "Sto7": {"system": "Sto7"}, "Sis7b": {"system": "Sis7b"}, "[7]": {"target": "T7, Ssh7a (Sulfolobus shibatae) (UniProt P61990)", "T7 sequence": "T2 sequence with V2A, E14Q, T17I"}, "[8]": {"target": "T8, Sso7d (Sulfolobus solfataricus) (UniProt P39476)", "T8 sequence": "T2 sequence with V2A, T17I"}, "[9]": {"target": "T1, Sac7d (Sulfolobus acidocaldarius)", "remark": "listed apart in the source"}, "Sis7a": {"system": "Sis7a"}, "Mcu7": {"system": "Mcu7"}}, "note": "Residue numbers refer to the chain shown, from its start.", "data": [{"substance": "calf-thymus DNA (ct-DNA), sonicated", "values": [{"measurement": "Kd", "setting": "[1]", "result": 0.203, "unit": "µM"}, {"measurement": "Kd", "setting": "[2]", "result": 22, "unit": "µM"}, {"measurement": "Kd", "setting": "Mse7", "result": 15, "unit": "µM"}, {"measurement": "Kd", "setting": "[3]", "result": 16, "unit": "µM"}, {"measurement": "Kd", "setting": "[4]", "result": 16, "unit": "µM"}, {"measurement": "Kd", "setting": "[5]", "result": 13, "unit": "µM"}, {"measurement": "Kd", "setting": "[6]", "result": 11, "unit": "µM"}, {"measurement": "Kd", "setting": "Sto7", "result": 14, "unit": "µM"}, {"measurement": "Kd", "setting": "Sis7b", "result": 16, "unit": "µM"}, {"measurement": "Kd", "setting": "[7]", "result": 18, "unit": "µM"}, {"measurement": "Kd", "setting": "[8]", "result": 17, "unit": "µM"}, {"measurement": "Kd", "setting": "[9]", "result": 13, "unit": "µM"}, {"measurement": "Kd", "setting": "Sis7a", "result": 15, "unit": "µM"}, {"measurement": "Kd", "setting": "Mcu7", "result": 16, "unit": "µM"}]}]}
